Data published in the domain aggregation screens of Martell et al. (2025).

Assay: soluble fraction after stress (log2 fold change); higher = more stays soluble; pooled small domains, quantitative proteomics
Conditions: stress: 50 degC
Method in brief: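 After stress at 50°C, the amount of each protein still soluble was measured. This was done on pooled custom libraries of small protein domains, using high-throughput quantitative proteomics. The figure given is a base-two log fold change and stands for aggregation propensity, with higher values meaning more protein stays in solution.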

| Sequence | soluble fraction (log2) |
| --- | --- |
| HMEIEYFDDEELDAYKGRKSDSYTDEEAAQFAEVLYTMRPSEVKDWTASLTLRGISMPDQIKDEAIMLME | -0.0466 |
| HMRQSQEVSGGERYRRLTAYLDTHPFITRKEYSGITGLLKNKALNDLNLLVNKGYLEAMGRGSHKVYVRPM | -0.424 |
| HMNNFTPEHLEKDIEGSLFFRRLKETAREEPGSLTVAQKDFIQMWHDQADGVYTLRQVFVQTAFDHVRSL | 0.1 |
| HMQPQYSVLFSNIEEKDGGSIITLLQQGNVPYKVENGGTTILVPANRANELRLTLAAQGLPK | -0.0124 |
| HMFDTVFIVRKTSDKPLDGLRTYLNSIGDSLVIGEDDEAFKVHVHTNHPGKVLEEAITYGALQTVKIENMR | -0.966 |
| HMRDGHEQLQGVLSAIKFHQANFLIGVLDDGTTVKGNMLSPQVGLEYTFRGRRERHPRWGEQFAFMDYRV | -2.76 |
| HMNKNNLRNVSSKIRKSRRVLNLSQAELSKKLDISPSYLNLIESGKRPITVPLLIKLGNILGISLKDL | -1.27 |
| HMSDDLLTGLDAYSRGDWTTATASFERVLTTADPNNRTEALYWLVMSETSAQNYQRALNYANTFL | -0.688 |
| HMISSKDIINDEDGARLGKIADVEIDVATGKILSVHVYRSFKLLHLFGNKDVVQIPWNKIMKIGSDVVIVE | -0.0123 |
| HMTVEMYIGKTANVLETVTENNGRIAIFGEEWQAKSLNGETIEKGAQAKIVKNDSIIMYVVPI | 0.0967 |
| HMKLNETIAEARKRKGLTQEQLAQKLYVTRQAVSRWERGEVVPGIDMLKLIAITLEEPIVHLL | -0.769 |
| HMGQNYTIVKGDSLWKIAQKQYGDGSQWKKIYDANKDAIESAAKKYGKKSSDSGKWIYPGVSLII | 0.0704 |
| HMRKDRKVLMERGRHIFNDLLEKEGIVATNQLMTKLLASHHLRNRDELYLMLANDDISLSSKEIKDLS | 0.0203 |
| HMIDENILSEEIKHYIETNNYAKDDKLPSERSLASLFNVSRALVRKSLISLVDVNYLYVKDKSGYYING | -0.0735 |
| HMDLDIRDDIYRANIPNDYKLQQMQNNIDYDKVLTGYYNNRPEANVIANRTLQLANDVYNRD | -0.0187 |
| HMQKTQVVEVAGKSYQLTKMDARTGSYVAFKVAGVLAPSGGKTAEMAAALMGMPRKDFDELQSLLLRTV | 0.141 |
| HMQSREISYSDFVASVERGEVATVILDGENIRFKGGDNVEYVTVRPADTNVTDLLIENQVVVRAEK | 0.155 |
| HMRSFGTLRRLPSGRYQASYAGPDLRRHAAPTTFETKLDAEGWLRDEHRMIERDEWTAPAARSQLK | 0.214 |
| HMADPLQLLEQQRQDYIQAVTEYLNSHPNAKPIWDVMKKDAGYGDMKLTDIPLGILKKLYITLT | -0.356 |
| HMESRDRVRQASAAGYRFMSTMAGHEPGFEEASRALFAGDQTAFEARITAWPVDVQTHLKKILAEAFTT | -0.734 |
| HMTKSTSMDLGGFMIVEGSETVRLGGQILQKDVDYTIDYFSGKINFISEEALNPGAEISVSYEENQ | -0.187 |
| HMQKFINQEHEKAYNLMLEKDYQQALKIFDDLIYLFPNEANLLSDRGVIFIHLNKKEAALQDFDQAVF | -2 |
| HMISESIPAKDALLRLLNTAYQTRTNAAGEFYFNDVPPGKYILQASVNDVEIIRENISINEN | -0.249 |
| HMYFEDEELDRFVGTPAGAYTEEDVEEFRDVLLSLDIEEVPSWVRSLQLRGIDFPETLRPELYLL | -3.14 |
| HMNINTEMEKVSYSLGVNIASSLKQQGWELDAKSLSDAFVDVFNGNKLLIDEKEASSILQNYQQKIANK | -0.144 |
| HMFNDGEIAIYTDPRGDAGETQIWKRGKGYYGQNDSFDFEAKDKKELEMKLKRWGYVLIAGSIDE | -0.291 |
| HMIDYIKYTVDGKTYELINNWDGTWSRELEAPLVAGRYDLLLEISQNGLVTYIDSSDPRYEFYLDVI | -3.12 |
| HMEFLDLEIDVDATDGRLLAFLAAKGEVVSQTFNDTIITVRVRMPTGAMGQVHRSALAIRPA | -0.507 |

| Sequence | soluble fraction (log2) |
| --- | --- |
| HMAPGSKAEIPEDLMKVINKDPKMKAFVATLNKANIMAISFRLSTAKKPETRERRFNLILETLKRGEKF | -3.18 |
| HMENVLFVNVLSMTVRELAEMMKIPVNKIIQDSFSKGIMMNPNQRLEYDNFAELAKKYGITVKI | -0.879 |
| HMSTKRGEILEFLKDFSARKGYAPSVREIMQAVGLKSTASVHYHLSELHKAGLITVDGTKNRAISLA | -0.149 |
| HMDDPEISQEQRQQLFRTAKEHFGASGNDVLKEILADHGRDSTVKMPVSVFAEIMGDLLKRALD | 0.432 |
| HMSRLLRTDAHLQYAAERGLPVTASAYTPVFAGAKQYTGRIESFDAQTIRFADGPAVERKAVARLEAE | 0.159 |
| HMKKAITMGDIITVKELSEKIGIQVAEIIKKLMGLGILATINKELDYDTANVIASEFHIELERK | -0.00712 |
| HMRMSQLSRLISILTLLKSKRLLTATELAEKYDVSIRTVYRDIRKLEEAGIPVYTIEGRGYSLMDNYT | -1.6 |
| HMRPPLRAAIIDHLARDWHTVAELARLLPASGAHVSRLVVELRAVGAVDERISHPDWPGNRPTEYRLRRA | -3.58 |
| HMETAVMPDVMKLDSTTAIQALKDKGFATIETYEVKSDRPAGVVVRQSETADSVVALSKEILLGVSNGADY | 0.304 |
| HMLNDKLQTLFSLFPAVDKDLKKKGVTRQILWEQYKRNHPDGVGRSQFNYYYAQWKDQVNPT | -1.47 |
| HMFDLATVKRVAEEAGMKFTIHPVELRAAHPNTAVLTLKSKAGRILVLKAASVGGGRIRVTEIDGVPAD | -0.423 |
| HMNADAIIGRMGKVTEPITPDGYGRVEIDGDSWKATAVGGVAIAEGTRVSVVSLDSIIITVKTV | -0.293 |
| HMGVGVKSTEVDYQRTSSGSDIPTDDAAWTKTIPAVKVNTFLWTRTKINYTDGTSAIFYSVGY | -0.281 |
| HMDVNMLVTGMLHKGEKSFVRVSFLRGKDWAEGIVPDAKIEKSQGFMEEEVARLEAYLLEQKSMIMEQA | -1.32 |
| HMTNYGTVRPGARGQAVTALQQALIRHGYKLTADGIYGRATRQAVRAFQQKHKLKVDGIVGSKTWALLLAD | -1.04 |
| HMEMTEDEITKQFDAMEREAKKEIDTGADKRAFMYGVSRTAAGMAGKNPKYARFITDKAKEVIENIAKYK | 0.108 |
| HMSDKPRYYINGNTLFISDKSVKKVLFSDLSGRSILHTTETAINIATFRGAHILTVIYTDGSTKSEVIF | -1.29 |
| HMDYVKTLGETINVRVAASTDADIYKLLPGGEILNRVGYNEEWTKVMVDGSTFYVYSEYVIQTEPPA | -1.37 |
| HMSIAEMSGARKSAILLLALDEDSAAEIFKYLSAGEVQEISMEMAKLNQVSHDDMKAVLEAFHKETEEFV | -0.542 |
| HMDDHKQHLIDFYHSRKRMPTYTEMMALFGYKSKNAVARLVEKMIDAGIVTKDKLGKLLPTTLFDSVPL | 0.0577 |
| HMKKVKVPNVVGMSLKEARDALSAVNIAVNQVAGSVEDKSVVTEQSLKAGDEVDEGSSLNLTTEYK | -0.156 |
| HMPDTETLTPRQRQILDLVQELGFTTIETLAERFGVSAQTVRREIIRLQAGNFLQRFHGGAGLASGGIRSA | -0.632 |
| HMENMRLILASNLRRIREERRLSLNKVSELTGVSKSMLGQIERGESNPTLQTVWKIANGLRVSLTDLTEVP | -0.0326 |
| HMQGNGKVATELLKDIIASDNLYINAMRMLVMHYNSKGTNQVEMVKLLHNILDLVPDDEYANEILKSAKKA | -0.327 |
| HMKNNAIAPDQVVSLLKNEVNYNDDGRIEILDNNKNIRYNSKGELLTIEERVNEFLDANPHFRK | -0.119 |
| HMASLIGEEKALQIALEHAGVALENVAYSQVKLENDDGRWEYDTEFYSGSKEYDYEIDASTGEILGYDHD | -0.0337 |
| HMLSGGEVKRIEIATILARKSGLMIFDEPEAGIDLWSFARLVETFEDIRSNTSGSLVIISHQ | 0.00488 |
